# Positions count from the first letter of the chain named.
# B1: 29F7 (antibody, V domains shown)
# VH: QVQLVQSGAEVKKPGASVKVSCKASGYTFTSYDINWVRQATGQGLEWMGWMNPNSGKTGYAQKFQGRVTMTRSTSISTAYMELSSLRSEDTAVYYCARGGYSNLGWFDPWGQGTLVTVSS
# VL: DIQMTQSPSSVFASVGDRVTITCRASQGISTWLAWYQQKPGKAPKFLIYAASSLQSGVPSRFSGSGSGTDFTLTISSLQPDDFATYYCQQANNFPFTFGPGTKVDIK
# B2: 21H9 (antibody, V domains shown)
# VH: QVPLVESGGGVVQPGRSLRLSCAASGFTFSSYGMHWVRQAPGKGLEWVAVIWYDGSNKYYADSVQGRFTISRDNSKNTLYLQMNSLRAEDTAVYYCARGVTMVRGLIIARYYYGLDVWGQGTTVTVSS
# VL: DIVMTQTPLSSPVTFGQPASISCRSSQSLVHSDGNTYLSWLQQRPGQPPRLLIYKISNRFFGVPDRFSGSGAGTDFTLKISRVEAEDVGLYYCMQSTQFPLTFGGGTKVEIK
# B3: 30D7 (antibody, V domains shown)
# VH: B2 VH with Q65K, L106V
# VL: B2 VL with F15L, S81G
# B4: 27A3 (antibody, V domains shown)
# VH: QLQLQESGPGLVKPSETLSLTCTVSGGSISSRSDYWGWIRQPPGKGLEWIGTIYYSGDTYYNPSLKSRVTISVDTSKNQFSLKLSSVTAADTAVYYCARQQLVLYYFDYWGQGTLVTVSS
# VL: EIVLTQSPGTLSLSPGERATLSCRASQSVSSSYLAWYQQKPGQAPRLLIYATSNRATGIPDRFSGSGSGTDFTLTISRLEPEDFAVYYCQQHGSSPPLTFGGGTKVEIK
# B5: 27D10 (antibody, V domains shown)
# VH: B4 VH with D58S, Y60F
# VL: not shown
# B6: 33C3 (antibody, V domains shown)
# VH: QVQLVESGGGLVKPGESLRLSCAASGFTFSDYYMSWIRQAPGKGLEWVSYISHGGSTIYYADSVKGRFTISRDNAKNSLYLQMNSLRVEDTAVYFCARDDFWSGYYFNWFDPWGQGALVTVSS
# VL: DIQMTQYPLSLSASVGDRVTITCRASQSISSFLNWYHQKPGKAPKLLIYGTSSLQSGVPSRFSGSGSGTDFTLTISSLQPEDFATYYCQQTYSIPLTFGGGTNVEIK
# Columns and labels:
# Assay in all cases: cell-based or functional assay
# KDR [1] = molecular target: T1, KDR (human, UniProt P35968 20-1356)
# T1 sequence (P35968 20-1356): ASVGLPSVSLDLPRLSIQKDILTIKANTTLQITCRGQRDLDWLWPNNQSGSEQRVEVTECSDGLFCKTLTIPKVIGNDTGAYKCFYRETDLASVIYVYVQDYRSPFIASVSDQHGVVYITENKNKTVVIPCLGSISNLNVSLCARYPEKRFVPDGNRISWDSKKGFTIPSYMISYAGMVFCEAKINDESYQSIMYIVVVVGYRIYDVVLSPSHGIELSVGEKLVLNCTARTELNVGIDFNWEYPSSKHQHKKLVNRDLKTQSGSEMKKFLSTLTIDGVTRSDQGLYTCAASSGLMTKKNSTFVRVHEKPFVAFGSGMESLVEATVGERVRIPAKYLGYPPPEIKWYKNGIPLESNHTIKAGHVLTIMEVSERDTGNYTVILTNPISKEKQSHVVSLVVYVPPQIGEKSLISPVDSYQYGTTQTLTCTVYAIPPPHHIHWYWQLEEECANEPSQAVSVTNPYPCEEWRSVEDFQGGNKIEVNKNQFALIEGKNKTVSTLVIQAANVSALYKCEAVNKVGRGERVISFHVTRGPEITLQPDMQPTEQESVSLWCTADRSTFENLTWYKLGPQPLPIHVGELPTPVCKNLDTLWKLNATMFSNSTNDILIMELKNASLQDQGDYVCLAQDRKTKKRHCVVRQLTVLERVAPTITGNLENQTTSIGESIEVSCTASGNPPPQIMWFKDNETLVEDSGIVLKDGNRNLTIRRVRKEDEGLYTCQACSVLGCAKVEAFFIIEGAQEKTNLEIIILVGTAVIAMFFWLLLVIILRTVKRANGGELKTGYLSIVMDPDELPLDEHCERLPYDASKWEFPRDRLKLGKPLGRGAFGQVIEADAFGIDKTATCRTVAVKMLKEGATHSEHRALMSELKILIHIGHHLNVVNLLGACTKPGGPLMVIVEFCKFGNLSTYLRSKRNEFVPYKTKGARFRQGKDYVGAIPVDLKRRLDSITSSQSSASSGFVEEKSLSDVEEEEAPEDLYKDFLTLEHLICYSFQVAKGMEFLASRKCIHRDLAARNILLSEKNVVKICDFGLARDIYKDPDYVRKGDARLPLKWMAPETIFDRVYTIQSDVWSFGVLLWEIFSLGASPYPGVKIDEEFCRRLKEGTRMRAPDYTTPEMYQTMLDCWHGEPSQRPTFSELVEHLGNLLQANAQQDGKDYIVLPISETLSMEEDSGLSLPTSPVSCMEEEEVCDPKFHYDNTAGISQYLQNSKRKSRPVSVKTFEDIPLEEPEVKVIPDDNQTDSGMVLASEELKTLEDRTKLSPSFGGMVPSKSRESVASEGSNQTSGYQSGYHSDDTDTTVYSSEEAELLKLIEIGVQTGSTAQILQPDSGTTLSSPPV
# KDR [2] = molecular target: T1, KDR; remark: listed apart in the source
# KDR [3] = molecular target: T1, KDR; remark: listed apart in the source
# KDR [4] = molecular target: T1, KDR; remark: listed apart in the source
# KDR [5] = molecular target: T1, KDR; remark: listed apart in the source
Binder,"Activity at 133 nM (% Inhibition), 24-hour Pre-incubation at 37° C., Average (KDR [1])","Activity at 133 nM (% Inhibition), 24-hour Pre-incubation at 37° C., N = 1 (KDR [1])","Activity at 133 nM (% Inhibition), 24-hour Pre-incubation at 37° C., N = 2 (KDR [1])","Activity at 133 nM Antibody Concentration (% Survival Inhibition), Average (KDR [2])","Activity at 133 nM Antibody Concentration (% Survival Inhibition), N = 1 (KDR [2])","Activity at 133 nM Antibody Concentration (% Survival Inhibition), N = 2 (KDR [2])","% Inhibition of VEGF165-mediated 6-keto Prostaglandin F1α release at 133 nM Antibody Concentration, Average (KDR [3])","% Inhibition of VEGF165-mediated 6-keto Prostaglandin F1α release at 133 nM Antibody Concentration, N = 1 (KDR [3])","% Inhibition of VEGF165-mediated 6-keto Prostaglandin F1α release at 133 nM Antibody Concentration, N = 2 (KDR [3])","Activity at 133 nM (% Inhibition), 1-hour Pre-incubation at 4° C., Average (KDR [4])","Activity at 133 nM (% Inhibition), 1-hour Pre-incubation at 4° C., N = 1 (KDR [4])","Activity at 133 nM (% Inhibition), 1-hour Pre-incubation at 4° C., N = 2 (KDR [4])","% of Max VEGF KDR pTyr Activity (at 133 nM antibody concentration), Average (KDR [5])","% of Max VEGF KDR pTyr Activity (at 133 nM antibody concentration), N = 1 (KDR [5])","% of Max VEGF KDR pTyr Activity (at 133 nM antibody concentration), N = 2 (KDR [5])"
B1,26%,23%,30%,-12%,3%,-27%,19%,1%,38%,44%,36%,52%,16%,19%,12%
B2,-1%,-3%,2%,-18%,-20%,-16%,33%,5%,61%,26%,21%,31%,15%,16%,13%
B3,38%,39%,37%,-51%,-9%,-92%,10%,4%,15%,27%,26%,28%,12%,12%,12%
B4,9%,19%,0%,83%,86%,81%,88%,54%,121%,67%,63%,72%,19%,22%,17%
B5,8%,19%,-4%,76%,84%,68%,84%,56%,111%,65%,60%,69%,18%,19%,17%
B6,67%,45%,88%,103%,104%,102%,142%,106%,178%,80%,78%,83%,8%,6%,10%
